Legend:
[1] = target: SARS-CoV-2 Omicron BA.2.75.2 RBD, construct used for SPR (SARS-CoV-2) (UniProt P0DTC2); experiment: SPR
[2] = target: SARS-CoV-2 Omicron XBB.1 S glycoprotein, cell-surface expressed (Δ19) (SARS-CoV-2) (UniProt P0DTC2)
[3] = target: SARS-CoV-2 Omicron BQ.1.1 S glycoprotein, cell-surface expressed (Δ19) (SARS-CoV-2) (UniProt P0DTC2)
[4] = target: SARS-CoV-2 Omicron BN.1 S glycoprotein, cell-surface expressed (Δ19) (SARS-CoV-2) (UniProt P0DTC2)

Row | Substance | Kd [1] | koff [1] | kon [1] | neutralization of S VSV pseudovirus, fold reduction in potency relative to Wu [2] | neutralization of S VSV pseudovirus, fold reduction in potency relative to Wu [3] | neutralization of S VSV pseudovirus, fold reduction in potency relative to Wu [4]
1 | S309 Fab (fragment antigen-binding region of the S309 antibody, the parent antibody for sotrovimab), used for SPR | 860 pM | 2.8e-05 s⁻¹ | 25500 M⁻¹ s⁻¹ |  |  | 
2 | sotrovimab immunoglobulin G (IgG) (antibody) |  |  |  | 6.5 fold | 94 fold | 778 fold

Source: paper PMC10511321
